Source: patent US20220235118A1 (IMMUNOME, published 2022)

Columns and labels:
[1] = biological target: T1, SARS-CoV-2 Spike S1 domain D614G (SARS-CoV-2, UniProt P0DTC2 16-685); test: HTRF, soluble S1 construct
T1 construct: domain: S1

[2] = biological target: T2, SARS-CoV-2 Spike S1 domain A222S, D614G (SARS-CoV-2, UniProt P0DTC2 16-685); test: HTRF, soluble S1 construct
T2 construct: domain: S1; also called Spanish (A222S, D614G)

[3] = biological target: T3, SARS-CoV-2 Spike S1 domain K417N, E484K, N501Y, D614G (SARS-CoV-2, UniProt P0DTC2 16-685); test: HTRF, soluble S1 construct
T3 construct: domain: S1; also called S. African (K417N, E484K, N501Y, D614G); B.1.351

[4] = biological target: T4, SARS-CoV-2 Spike S1 domain ΔHV69/70, ΔY144, N501Y, A570D, D614G, P681H (SARS-CoV-2, UniProt P0DTC2 16-685); test: HTRF, soluble S1 construct
T4 construct: domain: S1; also called U.K. (B.1.1.7); DHV69/70, DY144, N501Y, A570D, D614G, P681H

[5] = biological target: T5, SARS-CoV-2 Spike S1 domain ΔHV69/70, Y453F, D614G (SARS-CoV-2, UniProt P0DTC2 16-685); test: HTRF, soluble S1 construct
T5 construct: domain: S1; also called Denmark (ΔHV69/70, Y453F, D614G); DHV69/70, Y453F, D614G

[6] = biological target: T6, SARS-CoV-2 Spike RBD N439K (SARS-CoV-2, UniProt P0DTC2 319-541); test: HTRF, soluble RBD construct
T6 construct: domain: RBD

[7] = biological target: T7, SARS-CoV-2 Spike RBD E406Q (SARS-CoV-2, UniProt P0DTC2 319-541); test: HTRF, soluble RBD construct
T7 construct: domain: RBD

[8] = biological target: T8, SARS-CoV-2 Spike RBD K417N (SARS-CoV-2, UniProt P0DTC2 319-541); test: HTRF, soluble RBD construct
T8 construct: domain: RBD

[9] = biological target: T9, SARS-CoV-2 Spike RBD N501Y (SARS-CoV-2, UniProt P0DTC2 319-541); test: HTRF, soluble RBD construct
T9 construct: domain: RBD

[10] = biological target: T10, SARS-CoV-2 Spike RBD Y453F (SARS-CoV-2, UniProt P0DTC2 319-541); test: HTRF, soluble RBD construct
T10 construct: domain: RBD

[11] = biological target: T11, SARS-CoV-2 Spike RBD A352S (SARS-CoV-2, UniProt P0DTC2 319-541); test: HTRF, soluble RBD construct
T11 construct: domain: RBD

[12] = biological target: T12, SARS-CoV-2 Spike RBD A475V (SARS-CoV-2, UniProt P0DTC2 319-541); test: HTRF, soluble RBD construct
T12 construct: domain: RBD

B1: PR194_00292 (antibody, V domains shown)
VH: QVQLQQWGAGLLKPSETLSLTCAVYGGSLSGYYWSWIRQPPGKGLEWIGEINHSGSTNHNPSLKSRVSISVDTSKNQFSLKLSSVTAADTAVYYCARAWKYSSSWYSGGIYYGMDVWGQGTTVTVSS
VL: QSALTQPASVSGSPGQSITISCSGTSSDVGSYNLVSWYQQHPGKAPKLMIYEGTKRPSGVSNRFSSSKSGNTASLTISGLQAEDEADYYCCSYAGFSTWVFGGGTKLTVL
B1 showed a fold over background [1] of 1.06 fold over background, a fold over background [2] of 1.02 fold over background and a fold over background [3] of 2.26 fold over background. It also gave a fold over background [4] of 2.37 fold over background, a fold over background [5] of 2.59 fold over background and a fold over background [6] of 1.06 fold over background. The fold over background [7] was 0.967 fold over background, the fold over background [8] was 1.03 fold over background and the fold over background [9] was 0.996 fold over background. The fold over background [10] was 0.974 fold over background, the fold over background [11] was 0.94 fold over background and the fold over background [12] was 1.02 fold over background.

B2: PR199_00255 (antibody, V domains shown)
VH: QVQLVESGGGVVQPGRSLRLSCAASGFTFSTYGMHWVRQAPGKGLEWVAVIWYNGINKHYADSVKGRFTISRDNSKNTLYLQMSSLRVEDTAVYYCARDWGTLTTLFDFWGQGTLVTVSS
VL: DIQMTQSPSSLSASVGERATITCRASQSISSHLNWYQQKPGKAPKFLIYGASSLQSGVPSRFSGSGSGTDFTLTISSLQPEDFATYYCQQSYSTPPWTFGQGTKVEIK
notes: also called IMM20279; PR190_00255
B2 showed a fold over background [1] of 11.2 fold over background, a fold over background [2] of 9.3 fold over background and a fold over background [3] of 9.48 fold over background. The fold over background [4] was 7.29 fold over background, the fold over background [5] was 9.63 fold over background and the fold over background [6] was 6.09 fold over background. It also gave a fold over background [7] of 10.9 fold over background, a fold over background [8] of 7.29 fold over background and a fold over background [9] of 6.15 fold over background. It also gave a fold over background [11] of 8.26 fold over background and a fold over background [12] of 7.64 fold over background.

B3: PR194_00453 (antibody, V domains shown)
VH: QLQLQESGPGLVKPSETLSLTCTVSGGSISSSSSYWGWFRQPPGKGLGWIRSIYYSGSTYYNPSLKSRVTMSVDTSKNQFSLKLSSVTAADTAVYYCARAKFSVWDNYRYPFDYWGQGILVTVSS
VL: not shown
Binder B3 has a fold over background [1] of 9.55 fold over background, a fold over background [2] of 9.21 fold over background and a fold over background [3] of 9.57 fold over background. It also gave a fold over background [4] of 9.06 fold over background, a fold over background [5] of 9.45 fold over background and a fold over background [6] of 1.05 fold over background. It also gave a fold over background [7] of 0.99 fold over background, a fold over background [8] of 1.1 fold over background and a fold over background [9] of 1.03 fold over background. The fold over background [10] was 0.987 fold over background, the fold over background [11] was 1.11 fold over background and the fold over background [12] was 1.06 fold over background.

B4: PR194_00068 (antibody, V domains shown)
VH: EVQLLESGGGLVQPGGSLRLSCSASGFTFTNYAMSWVRQAPGKGLEWVSTISGSGGSTYYADSVKGRFTISRDNSKSTLFLQMNSLRAEDTAIYYCANSGPTGDLDYWGQGTLVTVSS
VL: SYELTQPPSVSVSPGQTTLSLTCSGDKLGNKYVCWYQQKPGQSPVLVIYQDTKRPSGIPERVSGSNSGDTATLTISGTQAMDEADYYCQAWDSSTAVFGGGTKLTVL
Binder B4 has a fold over background [6] of 1.06 fold over background.

B5: PR194_00364_b (antibody, V domains shown)
VH: EVQLVESGGGLVKPGGSLRLSCSASGFTFTTYTMNWVRQAPGKGLEWVSSISSTGLSIYYADSVKGRFTISRDNAKNSLYLQMNSLRAEDTAVYYCARDPSPTTIYYYYYMDVWGKGTTVTVSS
VL: QSALTQPASVSGSPGQSITISCTGTSSDVGTYNLVSWYQHYPGKAPKLIIYEVSKRPSGVSDRFSGSKSGNTASLTISGLQAEDEADYYCCSYAGSTTGYVVFGGGTKLTVL
Binder B5 has a fold over background [11] of 0.917 fold over background.

B6: PR197_00647 (antibody, V domains shown)
VH: QVQLVESGGGVVQPGRSLRLSCAASGFTFSSYAMHWVRQAPGKGLQWVTLISYDGGDKYYADSVRGRFTISRDNSKNTLYLQMNSLRTEDTAVYYCARDRPQTGDWFPPIPTGVLDVWGQGTTVTVSS
VL: DIQMTQSPSSLSASVGDRVTITCRASQGISNYLAWFQQKPGKAPKSLIYAASSLQSGVPSRFSGSESGTDFTLTISSLQPEDFATYYCQQYHSYPITFGQGTRLEIK
B6 was tested, and the fold over background [1] was 8.3 fold over background, the fold over background [2] was 9.54 fold over background and the fold over background [3] was 7.72 fold over background. The fold over background [4] was 1.1 fold over background, the fold over background [5] was 1.07 fold over background and the fold over background [6] was 1.04 fold over background. For the same binder, the fold over background [7] was 1.03 fold over background, the fold over background [8] was 1.03 fold over background and the fold over background [9] was 1.06 fold over background. It also gave a fold over background [10] of 1.11 fold over background, a fold over background [11] of 1.04 fold over background and a fold over background [12] of 0.999 fold over background.

B7: PR196_00413_a (antibody, V domains shown)
VH: QVQLVQSGAEVKKPGSSVKVSCKASGGTFSSYAITWVRQAPGQGLEWMGGIIPIFGTANYAQKFQGRVTITADESTSTAYMELSSLRSEDTAVYYCASDYGDSPLGYWGQGTLVTVSS
VL: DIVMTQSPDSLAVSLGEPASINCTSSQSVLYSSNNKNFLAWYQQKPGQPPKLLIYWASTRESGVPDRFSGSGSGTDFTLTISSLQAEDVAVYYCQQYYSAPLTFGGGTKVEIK
In the case of B7, the fold over background [1] is reported as 9.92 fold over background, the fold over background [2] is reported as 8.74 fold over background and the fold over background [3] is reported as 9 fold over background. The fold over background [4] was 6.39 fold over background, the fold over background [5] was 9.68 fold over background and the fold over background [6] was 1.07 fold over background. The fold over background [7] was 1.02 fold over background, the fold over background [8] was 1.06 fold over background and the fold over background [9] was 1.08 fold over background. It also gave a fold over background [10] of 1.06 fold over background, a fold over background [11] of 1.07 fold over background and a fold over background [12] of 1.01 fold over background.

B8: PR201_00151 (antibody, V domains shown)
VH: RVTLRESGPALVKPTQTLTLTCTFSGFSLNTSGMCVSWIRQPPGKALEWLARIDWDDDKYYSTSLETRLTISKDTSKNQVVLTMTNLDPVDTGTYYCARISIQSRGGGADYWGQGTLVTVSS
VL: DIQMTQSPSSLSASVGDRVTITCRASQSISSYLHWYQQKSGKAPKLLIFVASTLQSGVPSRFSGSGSGTDFTLTISSLQPEDSAAYYCQQSYSPPWTFGQGTKVEIK
B8 was tested, and the fold over background [1] was 7.25 fold over background, the fold over background [2] was 7.29 fold over background and the fold over background [3] was 1.05 fold over background. For the same binder, the fold over background [4] was 4.22 fold over background, the fold over background [5] was 6.53 fold over background and the fold over background [6] was 6.03 fold over background. It also gave a fold over background [7] of 8.3 fold over background, a fold over background [8] of 1.09 fold over background and a fold over background [9] of 6.16 fold over background. For the same binder, the fold over background [10] was 5.48 fold over background, the fold over background [11] was 7.06 fold over background and the fold over background [12] was 5.7 fold over background.
